In data set [1] the test system is PDCD-1 megaTAL parent (Artificial Sequence). The data set can be described thus: cell_activity. Particulars: primary human T cells, mRNA electroporation, TIDE.
Data set [2] concerns PDCD-1 megaTAL thermostable variant (Artificial Sequence). The data set can be described thus: cell_activity. Particulars: nearly 80%; primary human T cells, mRNA electroporation, TIDE.

In the case of PDCD-1 target site, the activity in data set [1] was less than 20 % editing; in data set [2] it was 80 % editing.

For the origin of these results see patent US20220119784.
